Laboratory results published in patent publication US9371374 (AbbVie / Abbott, dated 2016).

T1: HCV Core1-169 (HCV-1, UniProt P26664 1-169)
T1 construct: also called Solid Phase HCV Core
T1 sequence: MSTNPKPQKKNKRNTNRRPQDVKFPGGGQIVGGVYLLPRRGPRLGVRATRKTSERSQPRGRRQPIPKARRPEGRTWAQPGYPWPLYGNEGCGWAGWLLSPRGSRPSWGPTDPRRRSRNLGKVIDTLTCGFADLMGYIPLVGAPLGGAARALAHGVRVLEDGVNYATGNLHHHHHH


Assays:
HCV Core1-169 [1] = molecular target: T1, HCV Core1-169; assay: sandwich EIA, capture 208A-207-271
HCV Core1-169 [2] = molecular target: T1, HCV Core1-169; assay: sandwich EIA, capture 208A-692
HCV Core1-169 [3] = molecular target: T1, HCV Core1-169; assay: sandwich EIA, capture 208A-557
HCV Core1-169 [4] = molecular target: T1, HCV Core1-169; assay: sandwich EIA, capture C11-9
HCV Core1-169 [5] = molecular target: T1, HCV Core1-169; assay: sandwich EIA, capture 208B-741
HCV Core1-169 [6] = molecular target: T1, HCV Core1-169; assay: sandwich EIA, capture 208A-110
HCV Core1-169 [7] = molecular target: T1, HCV Core1-169; assay: sandwich EIA, capture 208B-395-334
HCV Core1-169 [8] = molecular target: T1, HCV Core1-169; assay: sandwich EIA, NC capture mAb; further: test concentration or dose not given here
HCV Core1-169 [9] = molecular target: T1, HCV Core1-169; assay: sandwich EIA, capture 208A-293
HCV Core1-169 [10] = molecular target: T1, HCV Core1-169; assay: sandwich EIA, capture C11-7
HCV Core1-169 [11] = molecular target: T1, HCV Core1-169; assay: sandwich EIA, capture 208B-1096
HCV Core1-169 [12] = molecular target: T1, HCV Core1-169; assay: sandwich EIA, capture 208B-612-226
[13] = molecular target: HCV Core 134-171-TT peptide (ALRZ-9 peptide) (HCV-1); assay: SPR, captured mAb;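 further: Anti-HCV Core mAbs from hybridoma supernatants held on a rabbit anti-mouse IgG CM5 surface, peptide flowed over 3 min then 4 min dissociation, duplicate concentrations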

Binder | OD492 (HCV Core1-169 [1]) | OD492 (HCV Core1-169 [2]) | OD492 (HCV Core1-169 [3]) | OD492 (HCV Core1-169 [4]) | OD492 (HCV Core1-169 [5]) | OD492 (HCV Core1-169 [6]) | OD492 (HCV Core1-169 [7]) | OD492 (HCV Core1-169 [8]) | OD492 (HCV Core1-169 [9]) | OD492 (HCV Core1-169 [10]) | OD492 (HCV Core1-169 [11]) | OD492 (HCV Core1-169 [12]) | Kd [13] | koff [13] | kon [13]
HCV 208A-692 (antibody, V domains shown) VH: QGQMQQSGAELAKPGASVKLSCKTSGFTFSSSYISWLKQKPGQSLEWIAWIFAGTGNTNYNQKFTDKAQLTVDTSSSTAYMQLSSLTTEDSAIYYCAISGTGFTYWGQGTLVTVSA VL: EVLMTQSPLSLPVSLGDQASISCRSSQSLEHSNGNTYLEWFLQRPGQPPKLLIYKVSSRFSGVPDRFSGSGSGTDFTLKISRVEAEDLGVYYCFQGSHVPFTFGSGTKLAIKR | 0.39 OD | 0.35 OD | 0.53 OD | 2.66 OD | 0.44 OD | 0.54 OD | 0.44 OD | 0.4 OD | 0.51 OD | 2.92 OD | 0.38 OD | 0.37 OD | – | – | –
HCV 208A-110 (antibody, V domains shown) VH: not shown VL: DIVLTQSPASLAVSLGQRATISCRASQSVSTSRYSYMHWYQQKPGQPPKLLIKYASNLESGVPARFSGSGSGTDFTLNIHPVAEEDTAAYYCQHSWEFPFTFGSGTKLEIKR | 0.17 OD | 0.14 OD | 0.17 OD | 0.13 OD | 0.2 OD | 0.18 OD | 0.22 OD | 0.15 OD | 0.2 OD | 0.18 OD | 0.21 OD | 0.2 OD | 0.33 nM | 0.00055 s⁻¹ | 1.7e+06 M⁻¹ s⁻¹
HCV 208A-557 (antibody, V domains shown) VH: QGQMQQSGAELVKPGASVKLSCKTSGFTFSSSYISWLKQKPGQSLEWIAWIYAGTGNTNYNQKFTDKAQLTVDTSSSTAYMQLSSLTTEDSAIYYCAISGTGFTYWGQGTLVTVSA VL: DIALTQSPASLAVSLGQRATISCRASQSVSTSRYSYMHWYQQKPGQPPELLIKYASNLESGVPARFSGSGSGTDFTLNIHPVGEEDTATYYCQHSWDFPFTFGSGTKLEIKR | 0.18 OD | 0.13 OD | 0.32 OD | 0.14 OD | 0.38 OD | 0.44 OD | 0.28 OD | 0.18 OD | 0.41 OD | 0.22 OD | 0.35 OD | 0.25 OD | 0.091 nM | 0.00021 s⁻¹ | 2.4e+06 M⁻¹ s⁻¹
HCV 208A-293 (antibody, V domains shown) VH: EVQLQQSGPELVKPGASVKISCKASGFTFTEYAMHWMKQSHGKSLEWIGGINPTNGDAIYNQKFKDKAKLTVDRSSSTAYMELRSLTSDDSALFYCARRELDYFPSWGQGTTLTVSS VL: DIVLTQSPASLIVSLGQRATISCRASQSVSTSRFSYVHWIQQKPGQPPKLLIKYASNLESGVPVRFSGSGSGTDFILNIHPVEEEDTATYFCQHSWEFPFTFGSGTKLEIKR | 0.39 OD | 0.34 OD | 0.52 OD | 2.6 OD | 0.5 OD | 0.52 OD | 0.44 OD | 0.37 OD | 0.49 OD | 2.87 OD | 0.41 OD | 0.37 OD | 0.11 nM | 0.00023 s⁻¹ | 2.1e+06 M⁻¹ s⁻¹
HCV 208A-741 (antibody, V domains shown) VH: QLQQSGPVLVKPGASVMISCKTSGYTFTENAMHWVKQSHGKSLEWIGGVNPNNGDTIFNQKFKGKATLTVDKSSSTAFMELRSLTSEESTVYYCVRRELDFFDYWGQGTSVTVSS VL: DIVLTQSPASLAVSLGQRTTISCGASQSVSTSRFSYMHWYQQKPGQPPKLLIKYASNLESGVPARFSGSGSGTDFTLNIHPVAEEDTAAYYCQHSWEFPFTFGSGTKLEIKR | 0.33 OD | 0.32 OD | 0.4 OD | 2.13 OD | 0.36 OD | 0.42 OD | 0.34 OD | 0.29 OD | 0.42 OD | 2.36 OD | 0.52 OD | 0.29 OD | 0.41 nM | 0.00069 s⁻¹ | 1.7e+06 M⁻¹ s⁻¹
HCV 208B-189 (antibody, V domains shown) VH: QVHLQQSGAELAKPGASVQMSCKASGYTFTANKMHWARQRPRQGLEWIGYIDPASGYTEYNQKIKDRATLTADKSSSTAYMQLSSLTSEDSAVYYCTNFAYWGQGTLVTVST VL: not shown | – | – | – | – | – | – | – | – | – | – | – | – | 0.17 nM | 0.00015 s⁻¹ | 880000 M⁻¹ s⁻¹
HCV 208B-612 (antibody, V domains shown) VH: EVQLQQSGPELVKPGASVKMSCKASGYRFTSYVMHWVRQKPGQGLEWIGYIDPHNDDTKYSEKFRGKATLTSDKSSTTAYMELSSLTSEDSAVYYCVRYSYDRDYSPMDYWGQGTSVTVSS VL: QIVLTQSPTLMSASPGEKVTMTCSASSTVTYIYWYQQKPGSSPRLWMYDTFNLVSGVPARFSGSRSGTSYFLTISSMEGEDAATYYCQQYSDSPYTFGGGTKLEIKR | 0.24 OD | – | 0.23 OD | 0.64 OD | 0.23 OD | 0.26 OD | 0.83 OD | 0.21 OD | 0.28 OD | 1.52 OD | 0.7 OD | 0.23 OD | 0.35 nM | 6.5e-05 s⁻¹ | 180000 M⁻¹ s⁻¹
HCV 208B-471 (antibody, V domains shown) VH: QGQLQQSGPVLVKPGASEILYCKTSGFTFSSTYISWLKQKPGQSLEWIAWIYAGTGATNYNQKFTGKAQLTVDASSNTAYMHFSGLTPEDSAIYYCAISGAGVYWGQGTLVTVSA VL: DVVMTQTPLSLPVSLGDQASISCRSSQSLLHSNGNTYLEWYLQKPGQSPNLLIYNVSNRFSGVPDRFSGSGSGTDFALKISRVGAEDLGVYYCFQGSHVPLTFGAGTKLELKR | – | – | – | – | – | – | – | – | – | – | – | – | 0.25 nM | 5.5e-05 s⁻¹ | 220000 M⁻¹ s⁻¹
HCV 208B-1096 (antibody, V domains shown) VH: QVQLQQSGAGLAKPGASVKMSCKASGYTFTANKMHWAKQRPGQGLEWIGYIDPSSGYTEYNHKIQYKATLTADTSSSTAYMQLSTLTFEDSAVYYCTNFAYWGQGTLVTVSA VL: DIVMTQTPLTLSVTIGQPASISCKSSQSLLFTNGKTYLNWFLQRPGQSPKRLIYLLSKLDSGVPDRFSGSGSGTDFTLKISRVEAEDLGVYYCLQSTYFPLTFGAGTKLELKR | 0.18 OD | 0.15 OD | 0.17 OD | 0.33 OD | 0.23 OD | 0.19 OD | 0.2 OD | 0.17 OD | 0.24 OD | 1.06 OD | 0.26 OD | 0.24 OD | 0.46 nM | 0.0006 s⁻¹ | 1.3e+06 M⁻¹ s⁻¹
HCV 208B-547 (antibody, V domains shown) VH: QVQLQQSGAELAKPGASVKMSCKASGYTFTSNKMHWAKQRPGQGLEWIGYIDPSSGYTEYNQKIKDKATLTADKSSSTAYMQLSSLTSEDSAVYYCTNFAYWGQGTLVTVSA VL: EVVLTQSPAITAASLGQKVTITCRASSSVSYMHWYRQKSGTSPQPWIYEISTLASGVPTRFRASGSGTSYSLTISSMEAEDAAIYYCQQWNYPLTFGAGTKLELKR | – | – | – | – | – | – | – | – | – | – | – | – | 3.2 nM | 0.0049 s⁻¹ | 1.6e+06 M⁻¹ s⁻¹
HCV 208B-672 (antibody, V domains shown) VH: EVKLVESGGSLVQPGGSLKLSCAASGFNFNTYAMSWVRQTPEKRLEWVAYISNGGGNTYYVDTVKGRFTISRDNAKNTLYLRMSSLKSEDTAMYYCARHGLYWGYSMDYWGQGTSVTVSS VL: DIQMTQSPSSLSASLGERVSLTCRASQDIGGSINWLQQEPDGTIKRLIYATSSLDSGVPKRFSGSRSGSDYSLTISSLESEDFVDYYCLQYASSPPTFGGGTKLEIKR | – | – | – | – | – | – | – | – | – | – | – | – | 0.16 nM | 0.00034 s⁻¹ | 2.2e+06 M⁻¹ s⁻¹
HCV 208A-207 (antibody, V domains shown) VH: QGQLQQPGAEFVKPGASLKLSCRASGYTFTSYWIHWVKQRPGQGLEWIGEIDPSDSYINQNQKFRGKATLTVDKSSSTAYMELSGLTSEDSAVYYCARHYYGVLDSWGQGTTLTVSS VL: DIVLTQSPATLSVTPGDRVSLSCRASQRIYNYLHWYQQKSHESPRLLTKYASQSISGIPSRFSGSGSGTDFILTINSVETEDFGMYFCQQSNSWPLTFGAGTKLELRR | 0.36 OD | 0.42 OD | 0.82 OD | 2.2 OD | 0.3 OD | 0.38 OD | 0.37 OD | 0.37 OD | 0.42 OD | 2.47 OD | 0.33 OD | 0.33 OD | < 0.032 nM | < 1e-05 s⁻¹ | 310000 M⁻¹ s⁻¹
